US20240100180A1

Key:
[1] = molecular target: CLDN18.2 of healthy mouse stomach (mouse) (UniProt P56857); assay: flow cytometry, live cells of healthy mouse stomach, average of two mice
[2] = molecular target: CLDN18.2 of healthy mouse stomach (mouse) (UniProt P56857); assay: flow cytometry, live cells of healthy mouse stomach, mouse 1, antibody 4 µg/ml
[3] = molecular target: CLDN18.2 of healthy mouse stomach (mouse) (UniProt P56857); assay: flow cytometry, live cells of healthy mouse stomach, mouse 2, antibody 4 µg/ml

B1: cCl1-1 (antibody, V domains shown)
VH: QIQLVQSGPELKKPGESVKISCKASGYTFTDYAMHWVKQAPGKGLKWMGWINTYTGKPTYADDFKGRFVFSLEASASTANLQISNLKNEDTATYFCARAVFYGYTMDAWGQGTSVTVSS
VL: DIQMTQSPASLSASLGETISIACRASEDIYSNLAWYQQKSGKSPQLLIFSVKRLQDGVPSRFSGSGSGTQYSLKISGMQPEDEGDYFCLQGSNFPLTFGSGTKLEIK
- % of positive healthy stomach cells [1]: 0.35%
- % of positive healthy stomach cells [2]: 0.4%
- % of positive healthy stomach cells [3]: 0.3%
